Columns and labels:
Assay in all cases: cell array, transfected fixed HEK293 cells
[1] = molecular target: T1, DES (human, UniProt P17661)
T1 construct: expressed in transfected HEK293 cells
Method: (§1) Transfection of all plasmids was confirmed by screening for the co-encoded marker ZS green (FIG. 13A).
(§2) Primary hits (duplicate spots) were identified by analysing fluorescence (AF647 and ZsGreenl) on ImageQuant. Vectors encoding all hits were sequenced to confirm their correct identities. […] Slides were analysed as above.

[2] = molecular target: T2, EGFR (human, UniProt P00533)
T2 construct: expressed in transfected HEK293 cells
Method: as §1, §2

[3] = molecular target: T3, PPT1 (human, UniProt P50897)
T3 construct: expressed in transfected HEK293 cells
T3 sequence (looked up): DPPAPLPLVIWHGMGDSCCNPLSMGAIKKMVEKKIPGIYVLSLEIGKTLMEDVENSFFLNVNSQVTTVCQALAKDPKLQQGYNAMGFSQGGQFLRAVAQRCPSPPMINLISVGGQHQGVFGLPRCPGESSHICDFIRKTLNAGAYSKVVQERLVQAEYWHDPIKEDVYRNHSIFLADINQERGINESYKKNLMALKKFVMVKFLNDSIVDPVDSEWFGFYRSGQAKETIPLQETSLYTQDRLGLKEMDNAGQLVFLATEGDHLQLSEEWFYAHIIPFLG
Method: as §1, §2

[4] = molecular target: T4, EDN2 (human, UniProt P20800)
T4 construct: expressed in transfected HEK293 cells
T4 sequence (looked up): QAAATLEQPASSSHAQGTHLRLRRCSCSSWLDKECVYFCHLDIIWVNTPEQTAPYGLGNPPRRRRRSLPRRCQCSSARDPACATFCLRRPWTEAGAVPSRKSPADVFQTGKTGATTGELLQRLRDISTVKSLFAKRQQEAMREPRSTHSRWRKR
Method: as §1, §2

[5] = molecular target: T5, BAIAP2L2 (human, UniProt Q6UXY1)
T5 construct: expressed in transfected HEK293 cells
T5 sequence (looked up): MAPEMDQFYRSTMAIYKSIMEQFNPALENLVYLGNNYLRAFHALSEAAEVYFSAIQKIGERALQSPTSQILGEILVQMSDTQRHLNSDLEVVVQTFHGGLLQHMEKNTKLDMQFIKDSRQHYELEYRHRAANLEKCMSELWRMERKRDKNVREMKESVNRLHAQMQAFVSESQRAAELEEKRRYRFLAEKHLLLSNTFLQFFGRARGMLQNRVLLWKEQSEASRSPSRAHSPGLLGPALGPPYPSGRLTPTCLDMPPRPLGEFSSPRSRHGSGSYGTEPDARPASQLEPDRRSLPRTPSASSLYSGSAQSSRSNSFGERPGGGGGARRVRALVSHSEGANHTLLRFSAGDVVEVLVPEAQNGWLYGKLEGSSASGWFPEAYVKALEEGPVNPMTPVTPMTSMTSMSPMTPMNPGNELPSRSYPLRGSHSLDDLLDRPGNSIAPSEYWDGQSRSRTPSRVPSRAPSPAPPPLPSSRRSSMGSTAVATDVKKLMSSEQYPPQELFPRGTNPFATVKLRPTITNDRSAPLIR
Method: as §1, §2

[6] = molecular target: T6, OSM (human, UniProt P13725)
T6 construct: expressed in transfected HEK293 cells
T6 sequence (looked up): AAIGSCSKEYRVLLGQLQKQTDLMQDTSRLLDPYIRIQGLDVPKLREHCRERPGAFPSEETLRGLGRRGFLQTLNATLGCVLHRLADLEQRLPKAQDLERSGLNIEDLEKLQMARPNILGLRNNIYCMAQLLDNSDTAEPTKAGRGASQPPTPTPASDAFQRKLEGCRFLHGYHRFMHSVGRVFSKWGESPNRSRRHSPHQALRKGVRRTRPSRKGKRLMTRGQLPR
Method: as §1, §2

[7] = molecular target: T7, PSAPL1 (human, UniProt Q6NUJ1)
T7 construct: expressed in transfected HEK293 cells
T7 sequence (looked up): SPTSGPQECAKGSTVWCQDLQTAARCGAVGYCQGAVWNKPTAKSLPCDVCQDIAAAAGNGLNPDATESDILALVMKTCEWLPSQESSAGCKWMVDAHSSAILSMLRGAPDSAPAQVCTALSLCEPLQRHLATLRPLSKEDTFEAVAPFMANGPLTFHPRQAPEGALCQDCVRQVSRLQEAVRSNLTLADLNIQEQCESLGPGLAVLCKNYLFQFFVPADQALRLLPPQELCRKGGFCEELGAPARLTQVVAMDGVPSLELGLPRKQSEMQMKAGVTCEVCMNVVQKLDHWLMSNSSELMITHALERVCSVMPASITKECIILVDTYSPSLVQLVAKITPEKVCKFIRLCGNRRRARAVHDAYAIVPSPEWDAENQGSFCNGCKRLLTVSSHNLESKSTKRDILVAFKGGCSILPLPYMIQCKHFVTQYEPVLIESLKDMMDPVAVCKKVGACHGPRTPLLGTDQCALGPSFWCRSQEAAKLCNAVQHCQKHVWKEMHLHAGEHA
Method: as §1, §2

[8] = molecular target: T8, KRT19 (human, UniProt P08727)
T8 construct: expressed in transfected HEK293 cells
T8 sequence (looked up): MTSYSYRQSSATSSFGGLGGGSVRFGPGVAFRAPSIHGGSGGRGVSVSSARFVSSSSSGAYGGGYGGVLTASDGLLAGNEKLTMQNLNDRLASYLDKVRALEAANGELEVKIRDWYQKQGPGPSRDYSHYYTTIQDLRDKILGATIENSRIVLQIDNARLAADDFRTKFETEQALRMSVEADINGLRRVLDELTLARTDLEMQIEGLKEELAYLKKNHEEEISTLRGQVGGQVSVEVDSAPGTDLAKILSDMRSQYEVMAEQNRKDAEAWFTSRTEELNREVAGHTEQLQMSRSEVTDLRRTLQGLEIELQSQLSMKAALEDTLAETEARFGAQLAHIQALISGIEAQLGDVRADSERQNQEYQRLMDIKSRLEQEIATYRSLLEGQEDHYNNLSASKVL
Method: as §1, §2

[9] = molecular target: T9, ZG16B (human, UniProt Q96DA0)
T9 construct: expressed in transfected HEK293 cells
T9 sequence (looked up): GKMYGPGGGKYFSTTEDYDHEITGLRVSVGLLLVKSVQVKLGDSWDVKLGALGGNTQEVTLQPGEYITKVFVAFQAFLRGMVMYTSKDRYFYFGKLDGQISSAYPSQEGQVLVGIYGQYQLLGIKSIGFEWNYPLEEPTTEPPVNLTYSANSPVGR
Method: as §1, §2

[10] = molecular target: T10, COL23A1 (human, UniProt Q86Y22)
T10 construct: expressed in transfected HEK293 cells
Method: as §1, §2

Measured: binding result

T1 sequence (P17661 2-470 limits assumed): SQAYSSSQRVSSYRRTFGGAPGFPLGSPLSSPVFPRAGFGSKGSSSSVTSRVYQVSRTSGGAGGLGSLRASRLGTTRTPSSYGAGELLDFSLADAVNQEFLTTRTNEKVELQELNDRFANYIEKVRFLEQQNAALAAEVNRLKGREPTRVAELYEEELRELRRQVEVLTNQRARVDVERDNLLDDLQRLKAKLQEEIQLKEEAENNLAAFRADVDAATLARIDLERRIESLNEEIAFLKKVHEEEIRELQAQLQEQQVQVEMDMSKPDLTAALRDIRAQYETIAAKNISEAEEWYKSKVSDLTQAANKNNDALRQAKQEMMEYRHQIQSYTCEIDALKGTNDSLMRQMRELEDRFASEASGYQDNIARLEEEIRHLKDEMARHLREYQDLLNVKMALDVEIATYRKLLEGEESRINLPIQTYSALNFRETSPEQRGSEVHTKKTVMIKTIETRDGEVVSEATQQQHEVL
T10 sequence (Q86Y22 whole entry): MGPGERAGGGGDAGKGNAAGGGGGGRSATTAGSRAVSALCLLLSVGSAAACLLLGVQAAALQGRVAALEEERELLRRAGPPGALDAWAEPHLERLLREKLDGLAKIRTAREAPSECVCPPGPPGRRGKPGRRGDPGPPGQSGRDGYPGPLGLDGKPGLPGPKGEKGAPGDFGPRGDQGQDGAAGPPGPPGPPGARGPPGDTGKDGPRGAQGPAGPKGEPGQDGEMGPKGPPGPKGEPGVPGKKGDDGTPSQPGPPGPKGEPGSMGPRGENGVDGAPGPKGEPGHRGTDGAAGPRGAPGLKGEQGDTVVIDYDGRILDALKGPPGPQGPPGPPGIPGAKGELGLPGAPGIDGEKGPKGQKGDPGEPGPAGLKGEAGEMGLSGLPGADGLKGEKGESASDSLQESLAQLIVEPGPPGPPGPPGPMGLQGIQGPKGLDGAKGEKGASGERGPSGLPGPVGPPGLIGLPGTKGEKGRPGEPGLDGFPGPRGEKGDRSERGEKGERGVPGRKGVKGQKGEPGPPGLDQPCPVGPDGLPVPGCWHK

B1: humanized h37M, human IgG1 (antibody, V domains shown)
VH: QVQLVQSGAEVKKPGASVKLSCKASGYTFTDYYINWVRQAPGKGLEWIARIYPGSGNTYYNEKFKGRATLTADKSTSTAYMQLSSLRSEDTAVYFCARGVYYFDYWGQGTTVTVSS
VL: DIVMTQSPSSLSASVGDRVTITCKASQNVRTNVAWYQQKPGKAPKALIYSASYRYSGVPDRFTGSGSGTDFTLTISSLQPEDFADYFCQQYNSYPRTFGGGTKVEIK
notes: human IgG1; terbium-labelled as the tracer of the HTRF assays; also called C-KIT-h37M; h37M-IgG1
no binding (tested: 2 µg/ml): [1] | [2] | [3] | [4] | [5] | [6] | [7] | [8] | [9] | [10]

From patent US20200283521A1 (GRANULAR THERAPEUTICS, published 2020)
